# Measured values reported in US20210095036A1 (University of Pennsylvania, published 2021).
# T1: GFRα4 isoform a (GFRα4a), Fc fusion with 6 His (human)
# T1 construct: the entry holds the whole fusion; also called GFR4α4a; immobilized GFRα4 isoform a
# T1 chain: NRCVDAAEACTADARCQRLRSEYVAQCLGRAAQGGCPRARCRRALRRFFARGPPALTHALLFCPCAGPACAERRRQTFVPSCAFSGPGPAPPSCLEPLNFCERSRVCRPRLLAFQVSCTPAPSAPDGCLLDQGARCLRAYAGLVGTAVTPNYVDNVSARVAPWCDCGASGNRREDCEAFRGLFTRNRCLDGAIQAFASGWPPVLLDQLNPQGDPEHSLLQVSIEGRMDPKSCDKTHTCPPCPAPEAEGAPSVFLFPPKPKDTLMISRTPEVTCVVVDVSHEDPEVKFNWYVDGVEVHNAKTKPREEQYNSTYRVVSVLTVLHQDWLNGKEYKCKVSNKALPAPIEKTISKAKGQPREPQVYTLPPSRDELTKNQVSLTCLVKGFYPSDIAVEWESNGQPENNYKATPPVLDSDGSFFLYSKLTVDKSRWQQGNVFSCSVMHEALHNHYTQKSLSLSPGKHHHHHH
# Key:
# [1] = target: T1, GFRα4 isoform a (GFRα4a), Fc fusion …; assay: phage ELISA, immobilized GFRα4a; first token of the cell
# Description: (§1) To perform these ELISAs, the GFRα4a isoform comprising a portion of GFRα4a (Asn24 -Ser245, UniProt accession #Q9GZZ7-2) was used, followed by a Factor Xa cleavage site/linker, a portion of optimized IgG1 Fc domain (Pro100-Lys330), and 6 His residues for purification. The GFRα4b isoform comprised a portion of GFRα4b (Asn24-Va1274, UniProt #Q9GZZ7-1), followed by a TEV cleavage site linker, and a portion of human IgG1 Fc domain (Asp104-Lys330).
# [2] = target: T2, GFRα4 isoform b (GFRα4b), Fc fusion (human); assay: phage ELISA, immobilized GFRα4b; second token of the cell
# T2 construct: the entry holds the whole fusion; also called GFR4α4b; GFRα4-Fc
# Description: as §1
Binder,binding result [1],binding result [2]
"10.H2.L1m1 (scFv, pIII not in the entry; order Vλ-linker-VH; also called scFv 10) scFv: QFVLTQSPSASASLGASVKLTCTLSSAHKTYTIDWYQQQPEKGPRYLMQVKSDGSYTKGTGVPDRFSGSSSGADRYLTISSLQSEDEADYYCGADDNGGYVFGGGTQLTVTGGGSSRSSSSGGGGSGGGGEVQLVESGGGLVQPGGSLRLSCAASGFTFSRHALTWVRQAPGKGLEWVSAIDNAGTTYYASWAKSRFTISRDNAKNSLYLQMNSLRAEDTAVYYCARVFYDINSGYYLDGMDLWGPGTLVTVSS",binds,binds
"28.H1.L3m5 (scFv, pIII not in the entry; order Vλ-linker-VH; also called scFv 28) scFv: QSALTQPASVSGSPGQSITISCTGTSAHKTYTVSWYQQHPGKAPKLMIYVKSDGSYTKGTGVPNRFSGSSSGADRYLTISGLQAEDEADYYCGADDNGGYVFGGGTQLTVLGGGSSRSSSSGGGGSGGGGQVQLQESGPGLVKPSETLSLTCAVSGYSISRHALTWIRQPPGKGLEWIGAIDNAGTTYYASWAKSRVTISVDTSKNQFSLKLSSVTAADTAVYYCARVFYDINSGYYLDGMDLWGPGTLVTVSS",no binding,no binding
"25.H1.L1m3 (scFv, pIII not in the entry; order Vλ-linker-VH; also called scFv 25) scFv: QLVLTQSPSASASLGASVKLTCTLSSAHKTYTIDWYQQQPEKGPRYLMQVKSDGSYTKGTGVPDRFSGSSSGADRYLTISSLQSEDEADYYCGADDNGGYVFGGGTQLTVLGGGSSRSSSSGGGGSGGGGQVQLQESGPGLVKPSETLSLTCAVSGYSISRHALTWIRQPPGKGLEWIGAIDNAGTTYYASWAKSRVTISVDTSKNQFSLKLSSVTAADTAVYYCARVFYDINSGYYLDGMDLWGPGTLVTVSS",binds,binds
"22.H1.L1m2 (scFv, pIII not in the entry; order Vλ-linker-VH; also called scFv 22) scFv: QFVLTQSPSASASLGASVKLTCTLSSAHKTYTIDWHQQQPEKGPRYLMQVKSDGSYTKGTGIPDRFSGSSSGAERYLTISSLQSEDEADYYCGADDNGGYVFGGGTQLTVLGGGSSRSSSSGGGGSGGGGQVQLQESGPGLVKPSETLSLTCAVSGYSISRHALTWIRQPPGKGLEWIGAIDNAGTTYYASWAKSRVTISVDTSKNQFSLKLSSVTAADTAVYYCARVFYDINSGYYLDGMDLWGPGTLVTVSS",no binding,no binding
"14.H1.L1m1 (scFv, pIII not in the entry; order Vλ-linker-VH; also called scFv 14) scFv: QFVLTQSPSASASLGASVKLTCTLSSAHKTYTIDWYQQQPEKGPRYLMQVKSDGSYTKGTGVPDRFSGSSSGADRYLTISSLQSEDEADYYCGADDNGGYVFGGGTQLTVTGGGSSRSSSSGGGGSGGGGQVQLQESGPGLVKPSETLSLTCAVSGYSISRHALTWIRQPPGKGLEWIGAIDNAGTTYYASWAKSRVTISVDTSKNQFSLKLSSVTAADTAVYYCARVFYDINSGYYLDGMDLWGPGTLVTVSS",binds,binds
"19.H2.L2m2 (scFv, pIII not in the entry; order Vλ-linker-VH; also called scFv 19) scFv: QFVLTQPPSASGTPGQRVTISCTLSSAHKTYTIDWYQQLPGTAPKLLIYVKSDGSYTKGTGVPDRFSGSSSGADASLAISGLQSEDEADYYCGADDNGGYVFGGGTQLTVLGGGSSRSSSSGGGGSGGGGEVQLVESGGGLVQPGGSLRLSCAASGFTFSRHALTWVRQAPGKGLEWVSAIDNAGTTYYASWAKSRFTISRDNAKNSLYLQMNSLRAEDTAVYYCARVFYDINSGYYLDGMDLWGPGTLVTVSS",no binding,no binding
"20.H2.L2m3 (scFv, pIII not in the entry; order Vλ-linker-VH; also called scFv 20) scFv: QSVLTQPPSASGTPGQRVTISCTLSSAHKTYTIDWYQQLPGTAPKLLIYVKSDGSYTKGTGVPDRFSGSKSGTSASLAISGLQSEDEADYYCGADDNGGYVFGGGTQLTVLGGGSSRSSSSGGGGSGGGGEVQLVESGGGLVQPGGSLRLSCAASGFTFSRHALTWVRQAPGKGLEWVSAIDNAGTTYYASWAKSRFTISRDNAKNSLYLQMNSLRAEDTAVYYCARVFYDINSGYYLDGMDLWGPGTLVTVSS",no binding,no binding

# Results, then the binder that gave them:
binding result [1],binding result [2],Binder
no binding,no binding,"27.H1.L3m4 (scFv, pIII not in the entry; order Vλ-linker-VH; also called scFv 27) scFv: QSALTQPASVSGSPGQSITISCTGTSAHKTYTVSWYQQHPGKAPKYLMQVKSDGSYTKGTGVPNRFSGSSSGADRYLTISGLQAEDEADYYCGADDNGGYVFGGGTQLTVLGGGSSRSSSSGGGGSGGGGQVQLQESGPGLVKPSETLSLTCAVSGYSISRHALTWIRQPPGKGLEWIGAIDNAGTTYYASWAKSRVTISVDTSKNQFSLKLSSVTAADTAVYYCARVFYDINSGYYLDGMDLWGPGTLVTVSS"
–,binds,"17.H1.L3m2 (scFv, pIII not in the entry; order Vλ-linker-VH; also called scFv 17) scFv: QFVLTQPASVSGSPGQSITISCTLSSAHKTYTIDWYQQHPGKAPKLMIQVKSDGSYTKGTGVSNRFSGSSSGADRYLTISGLQAEDEADYYCGADDNGGYVFGGGTQLTVLGGGSSRSSSSGGGGSGGGGQVQLQESGPGLVKPSETLSLTCAVSGYSISRHALTWIRQPPGKGLEWIGAIDNAGTTYYASWAKSRVTISVDTSKNQFSLKLSSVTAADTAVYYCARVFYDINSGYYLDGMDLWGPGTLVTVSS"
no binding,no binding,"18.H1.L3m3 (scFv, pIII not in the entry; order Vλ-linker-VH; also called scFv 18) scFv: QSALTQPASVSGSPGQSITISCTGTSAHKTYTIDWYQQHPGKAPKLMIYVKSDGSYTKGTGVSNRFSGSKSGNTASLTISGLQAEDEADYYCGADDNGGYVFGGGTQLTVLGGGSSRSSSSGGGGSGGGGQVQLQESGPGLVKPSETLSLTCAVSGYSISRHALTWIRQPPGKGLEWIGAIDNAGTTYYASWAKSRVTISVDTSKNQFSLKLSSVTAADTAVYYCARVFYDINSGYYLDGMDLWGPGTLVTVSS"
binds,binds,"8.H2m1.L2m1 (scFv, pIII not in the entry; order Vλ-linker-VH; The printed entry has an E before QSVKE of the VH; also called scFv 8) scFv: QFVLTQPPSASGTPGQRVTISCTLSSAHKTYTIDWYQQLPGTAPKLLIYVKSDGSYTKGTGVPDRFSGSSSGADRYLAISGLQSEDEADYYCGADDNGGYVFGGGTQLTVTGGGSSRSSSSGGGGSGGGGEQSVKESGGGLVQPGGSLRLSCAASGFTLSRHALTWVRQAPGKGLEWIGAIDNAGTTYYASWAKSRFTISRNTDLHTVYLQMNSLRAEDTAVYFCARVFYDINSGYYLDGMDLWGPGTLVTVSS"
no binding,no binding,"26.H1.L1m4 (scFv, pIII not in the entry; order Vλ-linker-VH; also called scFv 26) scFv: QLVLTQSPSASASLGASVKLTCTLSSAHKTYTIAWHQQQPEKGPRYLMQVKSDGSYTKGTGVPDRFSGSSSGADRYLTISSLQSEDEADYYCGADDNGGYVFGGGTQLTVLGGGSSRSSSSGGGGSGGGGQVQLQESGPGLVKPSETLSLTCAVSGYSISRHALTWIRQPPGKGLEWIGAIDNAGTTYYASWAKSRVTISVDTSKNQFSLKLSSVTAADTAVYYCARVFYDINSGYYLDGMDLWGPGTLVTVSS"
binds,binds,"12.H2m1.L1m1 (scFv, pIII not in the entry; order Vλ-linker-VH; The printed entry has an E before QSVKE of the VH; also called scFv 12) scFv: QFVLTQSPSASASLGASVKLTCTLSSAHKTYTIDWYQQQPEKGPRYLMQVKSDGSYTKGTGVPDRFSGSSSGADRYLTISSLQSEDEADYYCGADDNGGYVFGGGTQLTVTGGGSSRSSSSGGGGSGGGGEQSVKESGGGLVQPGGSLRLSCAASGFTLSRHALTWVRQAPGKGLEWIGAIDNAGTTYYASWAKSRFTISRNTDLHTVYLQMNSLRAEDTAVYFCARVFYDINSGYYLDGMDLWGPGTLVTVSS"
binds,binds,"6.H2.L2m1 (scFv, pIII not in the entry; order Vλ-linker-VH; also called scFv 6) scFv: QFVLTQPPSASGTPGQRVTISCTLSSAHKTYTIDWYQQLPGTAPKLLIYVKSDGSYTKGTGVPDRFSGSSSGADRYLAISGLQSEDEADYYCGADDNGGYVFGGGTQLTVTGGGSSRSSSSGGGGSGGGGEVQLVESGGGLVQPGGSLRLSCAASGFTFSRHALTWVRQAPGKGLEWVSAIDNAGTTYYASWAKSRFTISRDNAKNSLYLQMNSLRAEDTAVYYCARVFYDINSGYYLDGMDLWGPGTLVTVSS"
binds,binds,"4.H1m1.L3m1 (scFv, pIII not in the entry; order Vλ-linker-VH; also called scFv 4) scFv: QFVLTQPASVSGSPGQSITISCTLSSAHKTYTIDWYQQHPGKAPKYLMQVKSDGSYTKGTGVPNRFSGSSSGADRYLTISGLQAEDEADYVCGADDNGGYVFGGGTQLTVTGGGSSRSSSSGGGGSGGGGQQSVKESGPGLVKPSETLSLTCAVSGFSLSRHALTWVRQPPGKGLEWIGAIDNAGTTYYASWAKSRVTISRNTDLHTVSLKLSSVTAADTAVYFCARVFYDINSGYYLDGMDLWGPGTLVTVSS"
binds,binds,"24.H2.L3m1 (scFv, pIII not in the entry; order Vλ-linker-VH; also called scFv 24) scFv: QFVLTQPASVSGSPGQSITISCTLSSAHKTYTIDWYQQHPGKAPKYLMQVKSDGSYTKGTGVPNRFSGSSSGADRYLTISGLQAEDEADYVCGADDNGGYVFGGGTQLTVTGGGSSRSSSSGGGGSGGGGEVQLVESGGGLVQPGGSLRLSCAASGFTFSRHALTWVRQAPGKGLEWVSAIDNAGTTYYASWAKSRFTISRDNAKNSLYLQMNSLRAEDTAVYYCARVFYDINSGYYLDGMDLWGPGTLVTVSS"
